Test results published in article PMC4914113, “Another look at the mechanism involving trimeric dUTPases in Staphylococcus aureus pathogenicity island induction involves novel players in the party” (Nucleic Acids Research, 2016).

Assays:
[1] = target: Dut80α^WT, wild-type dUTPase of phage 80α (Staphylococcus aureus phage 80α); experiment: BLI; as a1, buffer STL supplemented with 0.5 mM dUPNPP (baselines and dissociation without nucleotide); 1:1 model
[2] = target: Dutϕ11^ΔVI, Dutϕ11 lacking motif VI (Staphylococcus aureus phage ϕ11); experiment: as above
[3] = target: Dutϕ11^(ΔVI F164A) (Staphylococcus aureus phage ϕ11); experiment: as above
[4] = target: Dutϕ11^ΔV-ΔVI (Staphylococcus aureus phage ϕ11); experiment: as above
[5] = target: Dutϕ11^WT, wild-type dUTPase of phage ϕ11 (Staphylococcus aureus phage ϕ11); experiment: as above
[6] = target: Dut80α^ΔV, Dut80α motif V deletion mutant (Staphylococcus aureus phage 80α); experiment: as above
[7] = target: Dut80α^F165A (Staphylococcus aureus phage 80α); experiment: as above
[8] = target: Dutϕ11^ΔV, Dutϕ11 motif V deletion mutant (Staphylococcus aureus phage ϕ11); experiment: as above
[9] = target: Dut80α^ΔVI, Dut80α lacking motif VI (Staphylococcus aureus phage 80α); experiment: as above
[10] = target: Dut80α^G164S (Staphylococcus aureus phage 80α); experiment: as above
[11] = target: Dut80α D81A D110C S168C (Staphylococcus aureus phage 80α); experiment: as above
[12] = target: Dut80α^D81A (Staphylococcus aureus phage 80α); experiment: as above
[13] = target: Dut80α^IV-11 (Staphylococcus aureus phage 80α); experiment: BLI; BLItz; His-tagged Dut immobilised at 1 μM on Ni-NTA biosensors, Stl in solution (at least five dilutions, 4 to 0.062 μM); buffer STL (400 mM NaCl, 75 mM HEPES pH 7.5, 5 mM MgCl2, 2 mM DTT); no nucleotide; 1:1 model
[14] = target: Dutϕ11^(ΔVI F164A) (Staphylococcus aureus phage ϕ11); experiment: as above
[15] = target: Dutϕ11^ΔV-ΔVI (Staphylococcus aureus phage ϕ11); experiment: as above
[16] = target: Dutϕ11^ΔVI-IV-80α (Staphylococcus aureus phage ϕ11); experiment: as above
[17] = target: Dutϕ11^WT, wild-type dUTPase of phage ϕ11 (Staphylococcus aureus phage ϕ11); experiment: as above
[18] = target: Dut80α^F165A (Staphylococcus aureus phage 80α); experiment: as above
[19] = target: Dut80α^D81A (Staphylococcus aureus phage 80α); experiment: as above

Stl repressor from SaPIbov1 (natural protein)
Kd [1]: 466 nM
koff [1]: 0.0014 s⁻¹
kon [1]: 3000 M⁻¹ s⁻¹
Kd [2]: 12.7 nM
koff [2]: 0.00014 s⁻¹
kon [2]: 11000 M⁻¹ s⁻¹
Kd [3]: 378 nM
koff [3]: 0.0031 s⁻¹
kon [3]: 8200 M⁻¹ s⁻¹
Kd [4]: 200 nM
koff [4]: 0.0019 s⁻¹
kon [4]: 9500 M⁻¹ s⁻¹
Kd [5]: 300 nM
koff [5]: 0.0006 s⁻¹
kon [5]: 2000 M⁻¹ s⁻¹
Kd [6]: 525 nM
koff [6]: 0.0042 s⁻¹
kon [6]: 8000 M⁻¹ s⁻¹
Kd [7]: > 1000 nM
Kd [8]: 3.84 nM
koff [8]: 5e-05 s⁻¹
kon [8]: 13000 M⁻¹ s⁻¹
Kd [9]: > 1000 nM
Kd [10]: > 1000 nM
Kd [11]: 192 nM
koff [11]: 0.005 s⁻¹
kon [11]: 26000 M⁻¹ s⁻¹
Kd [12]: > 1000 nM
Kd [13]: 3.13 nM
koff [13]: 0.00021 s⁻¹
kon [13]: 67000 M⁻¹ s⁻¹
Kd [14]: 131 nM
koff [14]: 0.0021 s⁻¹
kon [14]: 16000 M⁻¹ s⁻¹
Kd [15]: 111 nM
koff [15]: 0.0019 s⁻¹
kon [15]: 17000 M⁻¹ s⁻¹
Kd [16]: > 1000 nM
Kd [17]: 1.84 nM
koff [17]: 9.2e-05 s⁻¹
kon [17]: 50000 M⁻¹ s⁻¹
Kd [18]: 581 nM
koff [18]: 0.0157 s⁻¹
kon [18]: 27000 M⁻¹ s⁻¹
Kd [19]: 161 nM
koff [19]: 0.0042 s⁻¹
kon [19]: 26000 M⁻¹ s⁻¹
